Assay results as given in paper PMC2112703.

Target: rabbit skeletal muscle actin (rabbit), P68135
Test: cross-linking
Conditions: remark: other sources report otherwise

B1: depactin (actin-depolymerizing protein from starfish oocytes), P20690 1-150 (natural protein)
chain: PQSGTALDENVKEEIRAFKMDQSKVKVPWMLLEIVQNDDRIDVVKVTKKAGPSDNLETLREELKQREVVYFVLDYEPSEEKRAKHNIPKGKTYPLTCFWSMETANIKLKMKYSSTVGTLKSATSTLKTYLEAHDFDDLSEEAIGDKIKNF
- stoichiometry N: 1
